The values below come from IntAct's records for PubMed 22634751.

To fix the notation:
B1: Cyclin-dependent kinase inhibitor 1C (Homo sapiens), P49918 (parent)
chain: MSDASLRSTSTMERLVARGTFPVLVRTSACRSLFGPVDHEELSRELQARLAELNAEDQNRWDYDFQQDMPLRGPGRLQWTEVDSDSVPAFYRETVQVGRCRLLLAPRPVAVAVAVSPPLEPAAESLDGLEEAPEQLPSVPVPAPASTPPPVPVLAPAPAPAPAPVAAPVAAPVAVAVLAPAPAPAPAPAPAPAPVAAPAPAPAPAPAPAPAPAPAPDAAPQESAEQGANQGQRGQEPLADQLHSGISGRPAAGTAAASANGAAIKKLSGPLISDFFAKRKRSAPEKSSGDVPAPCPSPSAAPGVGSVEQTPRKRLR

This experiment covers variants of B1. The settings on record: with pcna_human PCNA.
For the variant MSDASLRSTSTMERLVARGTFPVLVRTSACRSLFGPVDHEELSRELQARLAELNAEDQNRWDYDFQQDMPLRGPGRLQWTEVDSDSVPAFYRETVQVGRCRLLLAPRPVAVAVAVSPPLEPAAESLDGLEEAPEQLPSVPVPAPASTPPPVPVLAPAPAPAPAPVAAPVAAPVAVAVLAPAPAPAPAPAPAPAPVAAPAPAPAPAPAPAPAPAPAPDAAPQESAEQGANQGQRGQEPLADQLHSGISGRPAAGTAAASANGAAIKKLSGPLISDFVAKRKRSAPEKSSGDVPAPCPSPSAAPGVGSVEQTPRKRLR [F276V], the “effect of a mutation on the interaction” value is “disrupting interaction”. Take MSDASLRSTSTMERLVARGTFPVLVRTSACRSLFGPVDHEELSRELQARLAELNAEDQNRWDYDFQQDMPLRGPGRLQWTEVDSDSVPAFYRETVQVGRCRLLLAPRPVAVAVAVSPPLEPAAESLDGLEEAPEQLPSVPVPAPASTPPPVPVLAPAPAPAPAPVAAPVAAPVAVAVLAPAPAPAPAPAPAPAPVAAPAPAPAPAPAPAPAPAPAPDAAPQESAEQGANQGQRGQEPLADQLHSGISGRPAAGTAAASANGAAIKKLSGPLISDFFAERKRSAPEKSSGDVPAPCPSPSAAPGVGSVEQTPRKRLR [K278E]: the “effect of a mutation on the interaction” value is on record as “disrupting interaction”.
